The values that follow come from patent US5783681, “Androgen regulation with DNA sequences of rat probasin gene” (University of Manitoba).

The target in series [1] is T1, glucocorticoid receptor (GR) (Rattus norvegicus) (UniProt P06536).
T1 sequence: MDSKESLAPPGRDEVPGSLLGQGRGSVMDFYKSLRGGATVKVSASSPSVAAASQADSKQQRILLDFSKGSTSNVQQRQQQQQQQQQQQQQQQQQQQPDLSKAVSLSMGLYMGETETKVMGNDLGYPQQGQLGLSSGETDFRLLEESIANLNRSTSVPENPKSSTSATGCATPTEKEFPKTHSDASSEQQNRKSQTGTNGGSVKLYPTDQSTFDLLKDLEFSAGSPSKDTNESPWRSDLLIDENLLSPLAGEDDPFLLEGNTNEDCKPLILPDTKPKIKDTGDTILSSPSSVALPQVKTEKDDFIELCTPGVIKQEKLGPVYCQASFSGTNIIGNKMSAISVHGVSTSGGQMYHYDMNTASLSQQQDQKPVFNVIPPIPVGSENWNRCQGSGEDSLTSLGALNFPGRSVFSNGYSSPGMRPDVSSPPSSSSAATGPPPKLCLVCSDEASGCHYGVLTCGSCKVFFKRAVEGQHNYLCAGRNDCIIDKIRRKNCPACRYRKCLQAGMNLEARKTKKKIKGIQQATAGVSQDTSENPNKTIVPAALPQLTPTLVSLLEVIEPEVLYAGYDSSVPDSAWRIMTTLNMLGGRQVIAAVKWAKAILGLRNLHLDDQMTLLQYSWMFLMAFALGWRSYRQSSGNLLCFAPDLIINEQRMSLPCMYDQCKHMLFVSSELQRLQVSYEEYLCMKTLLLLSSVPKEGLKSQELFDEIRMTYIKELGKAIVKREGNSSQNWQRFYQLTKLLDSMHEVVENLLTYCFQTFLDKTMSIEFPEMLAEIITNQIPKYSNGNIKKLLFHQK
Description: cell_activity. As to conditions: DEX, CAT reporter.

Series [2] deals with T2, androgen receptor (AR) (Rattus norvegicus) (UniProt P15207).
T2 sequence: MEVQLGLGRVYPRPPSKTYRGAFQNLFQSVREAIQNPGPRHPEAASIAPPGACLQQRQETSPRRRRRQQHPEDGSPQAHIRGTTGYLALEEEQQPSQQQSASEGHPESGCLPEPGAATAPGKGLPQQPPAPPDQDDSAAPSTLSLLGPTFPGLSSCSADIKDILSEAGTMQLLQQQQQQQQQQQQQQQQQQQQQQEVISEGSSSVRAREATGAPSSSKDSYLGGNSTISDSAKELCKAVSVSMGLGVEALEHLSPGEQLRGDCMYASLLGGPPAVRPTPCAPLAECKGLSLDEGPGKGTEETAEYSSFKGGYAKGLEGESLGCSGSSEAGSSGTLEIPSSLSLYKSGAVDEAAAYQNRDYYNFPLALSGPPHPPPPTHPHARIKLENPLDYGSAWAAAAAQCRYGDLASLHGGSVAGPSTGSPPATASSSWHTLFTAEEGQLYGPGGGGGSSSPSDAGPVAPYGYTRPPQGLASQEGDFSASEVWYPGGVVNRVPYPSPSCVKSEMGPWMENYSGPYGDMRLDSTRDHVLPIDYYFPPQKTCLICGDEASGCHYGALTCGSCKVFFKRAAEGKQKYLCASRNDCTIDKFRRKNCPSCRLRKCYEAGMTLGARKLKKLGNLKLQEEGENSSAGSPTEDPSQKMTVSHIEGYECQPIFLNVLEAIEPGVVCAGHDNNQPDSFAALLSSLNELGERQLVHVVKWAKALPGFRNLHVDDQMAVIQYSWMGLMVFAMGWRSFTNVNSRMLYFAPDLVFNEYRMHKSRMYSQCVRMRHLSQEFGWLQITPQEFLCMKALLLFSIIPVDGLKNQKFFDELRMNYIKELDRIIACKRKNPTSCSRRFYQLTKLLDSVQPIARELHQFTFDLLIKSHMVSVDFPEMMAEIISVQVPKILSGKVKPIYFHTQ
Kind of series: cell_activity. As to conditions: DHT, CAT reporter.

The target in series [3] is T3, androgen receptor V865L V865L (Homo sapiens) (UniProt P10275).
T3 sequence: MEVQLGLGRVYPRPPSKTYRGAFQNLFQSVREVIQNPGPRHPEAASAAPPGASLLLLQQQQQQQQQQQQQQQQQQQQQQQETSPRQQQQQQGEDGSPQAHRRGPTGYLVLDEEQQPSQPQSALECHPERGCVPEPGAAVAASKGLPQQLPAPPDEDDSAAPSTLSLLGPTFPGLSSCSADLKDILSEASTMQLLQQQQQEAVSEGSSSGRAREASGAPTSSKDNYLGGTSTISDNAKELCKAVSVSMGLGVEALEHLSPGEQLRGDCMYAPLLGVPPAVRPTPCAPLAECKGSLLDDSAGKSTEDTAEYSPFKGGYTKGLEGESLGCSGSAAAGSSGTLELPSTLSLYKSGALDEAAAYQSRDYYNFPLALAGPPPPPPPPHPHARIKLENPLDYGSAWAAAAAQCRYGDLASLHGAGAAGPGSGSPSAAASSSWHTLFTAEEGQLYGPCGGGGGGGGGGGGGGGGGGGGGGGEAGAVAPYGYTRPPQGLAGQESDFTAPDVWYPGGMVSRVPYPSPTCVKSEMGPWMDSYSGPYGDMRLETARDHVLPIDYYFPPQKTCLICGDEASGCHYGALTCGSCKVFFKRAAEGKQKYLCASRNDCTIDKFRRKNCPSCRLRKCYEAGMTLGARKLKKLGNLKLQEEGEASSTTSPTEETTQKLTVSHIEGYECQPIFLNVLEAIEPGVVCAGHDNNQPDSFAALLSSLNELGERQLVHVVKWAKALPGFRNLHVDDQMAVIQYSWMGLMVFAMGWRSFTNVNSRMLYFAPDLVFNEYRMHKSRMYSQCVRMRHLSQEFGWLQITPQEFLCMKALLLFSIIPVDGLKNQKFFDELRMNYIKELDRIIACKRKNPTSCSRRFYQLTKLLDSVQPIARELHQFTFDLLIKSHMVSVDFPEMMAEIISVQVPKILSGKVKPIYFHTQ
Description: cell_activity. As to conditions: 10 nM DHT; background 4.2.

Series [4] addresses androgen receptor V865M V865M (Homo sapiens) (UniProt P10275). Description: cell_activity. Particulars: 10 nM DHT; background 4.2.
In series [5] the target is T4, androgen receptor (hAR) wild type (Homo sapiens) (UniProt P10275).
T4 sequence: T3 sequence
Kind of series: cell_activity. Particulars: 10 nM DHT; background 4.2.

In series [6] the target is T5, androgen receptor (AR) (Rattus norvegicus, UniProt P15207 P15207:1-902). Kind of series: cell_activity; DHT, TK promoter CAT reporter. Particulars: chain copies: 2. The method, then:
(§1) Cells which had undergone transient transfection were harvested in phosphate buffered saline containing 1 mM EDTA. After centrifugation at 2000×g for 4 min at room temperature, cells were lysed in 0.1M Tris-HCl/0.1% Triton X-100, pH 7.8 for 15 min on ice. Insoluble material was removed by centrifugation at 14,500×g, 15 minutes, at 4° C. The CAT activity in the cell extract was determined by a two-phase fluor diffusion assay (Nachtigal et al., 1989). Also, the DNA was isolated from the insoluble material and 2 µg samples were placed in duplicate on nitrocellulose membrane via slot-blot apparatus and probed with ^32P-labelled CAT insert DNA. Autoradiograms were analyzed by densitometry and all CAT activity data was normalized for transfection efficiency. For transgenic mice, a total cellular extract of each tissue was assayed for CAT activity.
(§2) Due to the lack of appropriate cell lines containing either androgen receptors and/or prostatic in origin, a range of cell lines was tested. The human prostatic cells LNCaP would express and androgen regulate PB-CAT-while HeLa, prostatic DU-145 and PC-3 cells required co-transfection of an androgen receptor expression vector for androgen regulation. […]

Series [7] has as its target T6, glucocorticoid receptor (GR) (Rattus norvegicus, UniProt P06536 P06536:1-795). Kind of series: cell_activity; DEX, TK promoter CAT reporter. As to conditions: chain copies: 2. As for the experimental part: as §1, §2
The target of series [8] is T6, glucocorticoid receptor (GR). Description: cell_activity; DEX, CAT reporter. As to conditions: chain copies: 2. The method, then: as §1, §2
Series [9] concerns the target T5, androgen receptor (AR). Description: cell_activity; DHT, CAT reporter. As to conditions: chain copies: 2. The method, then: as §1, §2

Consider “ATGATAGCATCTTGTTCTTAGTCTTTTTCTTAATAGGGACATAAAGCCCACAAATAAAAATATGCCTGAAGAATGGGACAGGCATTGGGCATTGTCCATGCCTAGTAAAGTACTCCAAGAACCTATTTGTATACTAGATGACACAATGTCAATGTCTGTGTACAACTGCCAACTGGGATGCAAGACACTGCCCATGCCAATCATCCTGAAAAGCAGCTATAAAAAGCAGGAAGCTACTCTGCACCTTGTCAGTGAGGTCCAGATACCTACAG (double strand) [probasin -244 to +28]”, for which the figures for the activity (fold induction) in [1] and in [2] were 9 and 49, respectively.

Molecule “ATAGCATCTTGTTCTTAGTGGGCATTGTCCATGCCTAGTAAAGTACTCCAAGAACCTATTTGTATACTAGATGACACAATGTCAATGTCTGTGTACAACTGCCAACTGGGATGCAAGACACTGCCCATGCCAATCATCCTGAAAAGCAGCTATAAAAAGCAGGAAGCTACTCTGCACCTTGTCAGTGAGGTCCAGATACCTACAG (double strand) [ARE-1 adjacent to probasin -158 to +28]” returned an activity (fold induction) in series [1] of 21.

Turning to “TAGTCATCATGTTTAAACATCTACCATTCCAGTTAAGAAAATATGATAGCATCTTGTTCTTAGTCTTTTTCTTAATAGGGACATAAAGCCCACAAATAAAAATATGCCTGAAGAATGGGACAGGCATTGGGCATTGTCCATGCCTAGTAAAGTACTCCAAGAACCTATTTGTATACTAGATGACACAATGTCAATGTCTGTGTACAACTGCCAACTGGGATGCAAGACACTGCCCATGCCAATCATCCTGAAAAGCAGCTATAAAAAGCAGGAAGCTACTCTGCACCTTGTCAGTGAGGTCCAGATACCTACAG (double strand) [probasin -286 to +28 ARE2*]”, the figures for the activity (dpm/min/mg protein) in series [3], in series [4] and in series [5] were 122, 49 and 177, respectively.

On to “TAGTCATCATGTTTAAACATCTACCATTCCAGTTAAGAAAATATGATAGCATCTTGTTCTTAGTCTTTTTCTTAATAGGGACATAAAGCCCACAAATAAAAATATGCCTGAAGAATGGGACAGGCATTGGGCATTGTCCATGCCTAGTAAAGTACTCCAAGAACCTATTTGTATACTAGATGACACAATGTCAATGTCTGTGTACAACTGCCAACTGGGATGCAAGACACTGCCCATGCCAATCATCCTGAAAAGCAGCTATAAAAAGCAGGAAGCTACTCTGCACCTTGTCAGTGAGGTCCAGATACCTACAG (double strand) [probasin -286 to +28]”, for which the activity (dpm/min/mg protein) in [4] was found to be 42.

B1: probasin -244 to -96 (dsDNA)
DNA 1: ATGATAGCATCTTGTTCTTAGTCTTTTTCTTAATAGGGACATAAAGCCCACAAATAAAAATATGCCTGAAGAATGGGACAGGCATTGGGCATTGTCCATGCCTAGTAAAGTACTCCAAGAACCTATTTGTATACTAGATGACACAATGT
DNA 2: ACATTGTGTCATCTAGTATACAAATAGGTTCTTGGAGTACTTTACTAGGCATGGACAATGCCCAATGCCTGTCCCATTCTTCAGGCATATTTTTATTTGTGGGCTTTATGTCCCTATTAAGAAAAAGACTAAGAACAAGATGCTATCAT
As for B1, the activity with androgen receptor (AR) [6] stood at 61 fold induction; in series [7], 96 fold induction.

B2: probasin -158 to +28 (dsDNA)
DNA 1: GGGCATTGTCCATGCCTAGTAAAGTACTCCAAGAACCTATTTGTATACTAGATGACACAATGTCAATGTCTGTGTACAACTGCCAACTGGGATGCAAGACACTGCCCATGCCAATCATCCTGAAAAGCAGCTATAAAAAGCAGGAAGCTACTCTGCACCTTGTCAGTGAGGTCCAGATACCTACAG
DNA 2: CTGTAGGTATCTGGACCTCACTGACAAGGTGCAGAGTAGCTTCCTGCTTTTTATAGCTGCTTTTCAGGATGATTGGCATGGGCAGTGTCTTGCATCCCAGTTGGCAGTTGTACACAGACATTGACATTGTGTCATCTAGTATACAAATAGGTTCTTGGAGTACTTTACTAGGCATGGACAATGCCC
Regarding B2, the activity in series [8] was 1.2 fold induction; in the series with androgen receptor (AR) [9], 1.4 fold induction.
